# B1: HDV Ribozyme (parent)
# chain: GGCCGGCAUGGUCCCAGCCUCCUCGCUGGCGCCGGCUGGGCAACAUUCCGAGGGGACCGUCCCCUCGGUAAUGGCGAAUGGGACCCA
# Variants of: B1
# Assay: self-cleavage, relative activity (ratio to wild type); higher = more cleavage; co-transcriptional
row,Variant,self-cleavage
1,GGCCGGCAUGGUCCCAGCCUCUUCGCUGGCGCCGGCUGGGCAACAUUCCGAGGGGACCGUCCCCUCGGCAAUGGCGAAUGGGACCCA,0.914
2,GGCCGGCAUGGUCCCAUCCUCCUCGCUGUCGCCGGCUGGGCAACAUUCCGAGGGGACCGUCCCCUCGGUAAUGGCGAAUGGGACCCA,0.0554
3,GGCCGGCAUGGUCCCAGCCUCCUCGCUGGCGCCGGUUGGGCAACAUUCCGAGGGGACCGACCCCUCGGUAAUGGCGAAUGGGACCCA,0.727
4,GGCCGGCAUGGUCCCAGCCUCCUCGCUGGCGCCGGCUGGGCAACAAUCCGUGGGGACCGUCCCCUCGGUAAUGGCGAAUGGGACCCA,0.536
5,GGCCGGCAUGGUCCCAGCCUCCUCGCUGGCGCCGGCUGGGCAACAUUCCGAGGGGACCGUCCCCUCGAUAAUGGCGAAUGGGACCUA,0.965
6,GGCCGGCAUGGUCCCAGCCUCCUCGCUGGCGCCGGCUGGGCAACAUUCCGAGGGGACCGUCCCCACGGUAAUGGCGAAUCGGACCCA,0.123
7,GGCCGGCAUGGUCCCAGCCUCCUCACUGGCGCCGGCUGGGCAACAUUCCGAGGGGACCGUCCCCUCGGUAAUGUCGAAUGGGACCCA,0.0583
8,GGCCGGCAUGGUCCCAGCCUCCGCGCUGGCGCCGGCUGGGCAACAUUCCGAGGGGACCGUCCCCUCGGUGAUGGCGAAUGGGACCCA,0.59
9,GGCCGGCAUGCCCCCAGCCUCCUCGCUGGCGCCGGCUGGGCAACAUUCCGAGGGGACCGUCCCCUCGGUAAUGGCGAAUGGGACCCA,0.145
10,GGCCGGCAUGGUCCCAGCCUCCUCGCUGGCGCCGGCUGGGCAACAUUCCGAGGGGACAGUCCCCUCGGUAACGGCGAAUGGGACCCA,0.802
11,GGCCGGCAUGGUCCCAGCCUCCUCGCUGGCGCCGGCUGGGCAGCAUUCCGAGGGGACCGUCCCCUCGGUAAUGGCGGAUGGGACCCA,0.332
12,GGCCGGCAUGGUCCCAGCCUCCUCGCUGGCGCCGGCUGGGCAACAUUCCGAGGCGACCAUCCCCUCGGUAAUGGCGAAUGGGACCCA,0.926
13,GGCCGGCAGGGUCCCAGCCUCCUCGCUGGCGCCGGCUGGGCCACAUUCCGAGGGGACCGUCCCCUCGGUAAUGGCGAAUGGGACCCA,0.453
14,GGCCGGCAUGGUCCCAGCCUCCUCGCUGGCGCCGGCUGGGCAACAUUCCGAGGGGACCGUCCCCUCGGUACUGGCGAAUGGGGCCCA,0.582
15,GGCCGGCAUGGUCCCAGCCUCCUCGCCGGCGCCGGCUGGGCAACAUUCCGAGGGGACCGCCCCCUCGGUAAUGGCGAAUGGGACCCA,0.677
16,GGCCGGCAUGGUCCCAGCCUCCGCGCUGGCGCCGGCUGGGCAACAUUCCGAGGGGACCGUCCCCUCGGUAAAGGCGAAUGGGACCCA,0.341

row,Variant,self-cleavage
1,GGCCGGCAUGGUCCCAGCCUCCUCGCUGGCGCCGGCUAGGCAACAUUCCGAGGGGACCGUCCCCUCGGUAAUGGCGAAUGGGACGCA,0.157
2,GGCCGGCAUGGUCCCAGCCUCCUCGCUGGCGCCGGCUGGGCAACAUUCCGAGGGGCCCGUCCCCUCGGUAAUGGCUAAUGGGACCCA,1.19
3,AGCCGGCAUGGUCCCAGCCUCCUCGCUGGCGCCGGCUGGGCAACGUUCCGAGGGGACCGUCCCCUCGGUAAUGGCGAAUGGGACCCA,0.185
4,GGCCGGCAUGGUCCCAGCCUCCCCGCUGGCGCCGGCGGGGCAACAUUCCGAGGGGACCGUCCCCUCGGUAAUGGCGAAUGGGACCCA,0.266
5,GGCCGGCAUGGUCCCAGCCUCCUCGCUGGCGCCGGCUGGGCAACAUUCCUAGGGGACCGUCCCCUCGGUAAUGGAGAAUGGGACCCA,0.0773
6,GGCCGGCAUGGUCCCAGGCUCCUCGCUGGCGCCGGCUGGGCAACAUUCCGAGGGGACCGUCCCCUCGGUAACGGCGAAUGGGACCCA,0
7,GGCCGGCAUGGUCGCAGCCUCCUCGCUGGCGCCGGCUGGGCAACAUUCCGAGGGGACCGUCCCCUCGGUAACGGCGAAUGGGACCCA,0.0978
8,GGCCGGCAUGGUCCCAGCCUCCUCGCUGGCGCCGGCUGGGCAACAUUCCGAGGGGACCGUCCCCUCGGUAAUGGCGACUGGGAUCCA,0.196
9,GGCCGGCAUGGUCCCAGCCUCCUCGCUGGCGCCGGCUGGGCAACAUUCCGAGGGCACCGUCCCCUCGGUAAUAGCGAAUGGGACCCA,0.751
10,GGCCGGCAUGGUCCCAGCCUCCUCACUGGCGCCGGCUGGGCAACAUUCCGAGGGGGCCGUCCCCUCGGUAAUGGCGAAUGGGACCCA,0.227
11,GGCCGGCAUGGUCCCAGCCUCCUCGCUGGCGCCGGCUGGGCAACAUUCCGAGGGGACCGUCCCCUCGGUAAUGGCGAAGGGGACGCA,0.575
12,GGCCGGCAUGGUCCCAGCCUCCUCGCUGGCGCCGUCUGGGCAACAUUCCGAGGGGACCGUCCCCUCUGUAAUGGCGAAUGGGACCCA,0.391
13,GGCCGGCAUGGUCCCAGCCUCCUCGCCGGCGCCGGCUGGGCAACAUUCCGAGGGGACCGUCCCCUCGGUAGUGGCGAAUGGGACCCA,0.677
14,GGCCGGCAUUGUCCCAGCCUCCUCGCUGGCGCCGGCUAGGCAACAUUCCGAGGGGACCGUCCCCUCGGUAAUGGCGAAUGGGACCCA,0.103
15,GGCCGGCAUGGUCCCAGCCUCCUCGCUUGCGCCGGCUGGGCAACAUUCCGAGGGGACCGUCCCCUCGGUAAUGGCGCAUGGGACCCA,0.0475
16,GGCCGGCAUGGUCCCAGCCUCCUCGCUGGUGCCGGCUGGGCAACAUUCCGAAGGGACCGUCCCCUCGGUAAUGGCGAAUGGGACCCA,0.621
